Data published in patent US20100047893.

Columns and labels:
[1] = biological target: mixed bovine histones (Sigma)

B1: GST-TbPRMT7 (protein)
chain: MPPKQHRHQKKDKNDNALQNTIGFVPPGATLASVSGYRPPDAFVNRIDRNIPVPARLRHTPVSLIEAVNDFHYAMMNDEERNNFYYEVLKKHVTPETGVLEIGAGSGLLSLMAAKLGAKWVVAVEGSEELAKLARENIRANNMEHQVKVLHMMSTELKSKHLPEPPDVLLSEIFGTMMLGESALDYVVDVRNRLLKPTTKIIPQFGTQYAVPIECDALHRISSVSGWRDLDLKHMMTLQDTVSIVFAKHYGIRMNSVNFRRLSDPIELFRVDFSSSNRNDIPRRKHFDVVAKESGTAHAMLFYWKVTDDEFVMSTDPEDTVNNFPRDMQWGQALQLLDASNGPLPTPVVFTEGKNYNFECNFSGDRVILHMQLCPESGNGEMTECEGKTT
- methylarginine derivatives by cation exchange chromatography after 3H-AdoMet reaction [1]: only monomethylargnine produced with either histone (B) or RBP16 (C) substrate
- protein arginine methyltransferase activity (3H-AdoMet, SDS-PAGE, fluorography) (histone H3, P68432): the recombinant enzyme possesses protein arginine methyltransferase activity and utilizes histone H3 as a substrate
- methylarginine derivatives by cation exchange chromatography after 3H-AdoMet reaction (RBP16): only monomethylargnine produced with either histone (B) or RBP16 (C) substrate

B2: recombinant TbPRMT7 (protein)
chain: B1 chain
- in vitro methylation (3H-AdoMet, SDS-PAGE, fluorography) (GST): Of the eight substrates tested, only GST was not methylated
- in vitro methylation [1]: Results indicate methylation occurred
- in vitro methylation (RBP16): Results indicate methylation occurred

B3: TbPRMT7-ProtC (protein)
chain: B1 chain
- in vitro methylation (3H-AdoMet, fluorography) [1]: TbPRMT7-ProtC strongly methylated both histones and RBP16
- in vitro methylation (3H-AdoMet, fluorography) (RBP16): TbPRMT7-ProtC strongly methylated both histones and RBP16
